Experimental data published in the domain aggregation screens of Martell et al. (2025).

Assay: soluble fraction after stress (log2 fold change); higher = more stays soluble; pooled small domains, quantitative proteomics
Conditions: stress: 50 degC
Procedure, shortened: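 Each library was heated to 50°C as a stress step. The libraries, made up of small protein domains, were pooled and analysed at high throughput by quantitative proteomics. The reported value is the base-two logarithm of the fold change in each protein's soluble amount after stress, taken as a measure of aggregation propensity. The higher the value, the more protein stays in solution.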

Sequence	soluble fraction (log2)
HMDASVTIEQVERMVQANVSDDVIISQLQGRGAAQNLSTDDIINLTQKGISAEVIKAYQSAG	0.0658
HMDAVLMEYDRLLALELTEDPDVYQDLLDKVREQSLGADGRVTDKYREKFDAVATRFDDYEDNYQW	-0.52
HMDAVQAGKRVLIVDDLIATGGTAKAATDLIEKAGGTVVGFSFVMRLDGLDGLDKLDGKPSSSLIAMP	0.237
HMDAYMGEAKDEETFAEEYLNDSGLLNEIPESVARYFDIVAYARDLLIGDFSLHDGHVFNMT	-0.0437
HMDDAFLNKEMLKQALENLNEREKKLIYLRFYEGLTQKEIADRLSLSQMHVSRLLNESLNKLRRKI	-0.245
HMDDATDLPYQEFRTQVSDGQVKIAQFNNNTGKITFESISGDKFKTSGPLELSSDDERLFLENIEDFKFFT	0.104
HMDDATDVPYQEFRTQVTSGQVEIAQFNNNTGKISFQSTSGEKFETSGPLELSSDDERLFLENIEDFKFFT	-0.0161
HMDDATIKVNIAAKFLNAGNNLFVDIDTTVLEGRVLLTGLVDTQEVRIDAVRLVWEVEGIREVINEIEIG	-4.89
HMDDATTQLADRLLDLRRKAGYSQEQLADLLGVSRQAISKWEGAQGRPEVDNVVKLAQIYRVSTDFILTGS	-0.552
HMDDAVSHPDAGHIVTVTKVSADGTAEVMYRGASWRAKTADGSPLTAGSARIVRVDGAALVVEP	0.052
HMDDDDPDQEIAQYYEKLRAMNPDEETKQKLSDEINKLSKMMYSSQEAMVSRNYLDTVFSLPWHQF	-0.0959
HMDDEELDALKGIPANEYTQEQIKQISEVFHTLQKNEVKDWLNSLQLRNIELPFELRNEVFSQ	0.159
HMDDFPLKRGSKGNRVTLLQNALVKKYGAGILPKYGVDGMFGKEVEAALVHAKIPTTINEANYTKIV	0.0897
HMDDFSETLLQYIKEKGGHISLNDKTDAGVIYETFGVSKKTFKKAVGDLYKKRLIVLEDTGIRL	-0.0801
HMDDHLSFLAARLPDGASFDTDFDALGIDSFGMIALRAEVEERLGEQIADSDWTKVERPSEILAMLERK	-0.272
HMDDLATAYKAMGVDASISDKDLKRAYRKLMSQHHPDKMIAKGVPADMVAMATEKTQEIQAAYDLIERSR	0.127
HMDDLIIQIELKQEGLEITGLKVLLKEDSVIDEQVKQTIRRKIERFLVNLYGNPNVYVSKFSMGI	-0.325
HMDDLTTASIKQQLKALIDEENKNKPLSDQKLTDALKAQGIDISRRTVAKYREAMNIPGSSKRKRF	0.0936
HMDDMVLEIGPGIGTMTQYLAEAAGKVVAVEIDRNLLPILQETLADYDNVKVIHADVLSLDLEKLVQEE	-0.000883
HMDDPDALITDSQLKAIHVLLGKLKIDDNLKHAYIADVLQLKDIPETLKTLTKHQGSTIIERLNLLIKDA	0.0419
HMDDPLSQLTPREREVLELMASGASNQGIADALVITVRAVEKYVSSIFGKLGLPSTGSESRRVLAVLTFLR	-0.635
HMDDPYAGLRQRAYLFLRERDGAVPEEELIEHVFGSSGNPALWRPLLRQVLGADDRLDLRADGYWALRG	0.118
HMDDSPTARALRTLDLIHNRPGITAAELADRLGVTERAVRRYVLTLRDAGVPVLGTPGRYGGYQVGK	-0.426
HMDDSVTFSEFVRMVDSGQVESVRITGNEVTGSDSTGNTFRTFVPPQYEGLVNRLVERDVAVTAEE	0.0594
HMDDSVVFSLNAKGIRLTGAGKYGEAIALFDKAIAAKPGLSGLYFNRAEARRLSGDLPGARSDLEQALAI	-0.453

Sequence	soluble fraction (log2)
HMDDTRLELTLLGKIHNDEEINKQSHINVNIKNGVILLTGESPRREITERILTLARTFEHTRQIVNQIAT	0.116
HMDDVIDVYATYDKSAEGVLSNIQLFSNQKKTTPITPESGKIYIDVEGNYQFRWTGTQYATV	-0.111
HMDDYRSLRGQEKAAIFLMSLSQEQAAKIFANLDDEEIKEISQAMSSLGTVGSEIIERLFVEFAEQVSS	-1.06
HMDEARLAVASNLIRLRTDAGMTQAELGEKLNYSDKTISKWERAEAIPDAFVLKQIGELFHVSVDFLLRTH	-0.37
HMDEDTWKLYKRAYKKYYARYMKGNMSEEAFKTWAAQAARDRDAAIEQVKAALDENLKAQVIERLKEELNR	-0.407
HMDEEEKGEVEVPNLIGLTRKEAKKTLEEEGLLIETKESLKTNLDDEYEKIKSQLPKAGIKIKQGSTVYVD	0.0917
HMDEGQEHYVKETDLPFYSEADPASSVIFPLVLNQKLIEKERKDDWIRALEPTTGLVGWVLLKSLSPQQLS	0.124
HMDEIELLLQDAIQKLPEKQRMVFTLRYYDNLPYEEISKILDMSVSTLKTNYHYAKSKIEQYILDHS	-0.607
HMDEKPPHEALSNREFQVLQLLAQGRSVGQIAQQLTLSANTISTYRARIFDKLGLHNPADLFSYAARHRLT	-0.273
HMDELNFGNFEGTRIFVQRTARKKSIALSIRDGTIVILAPRHIPNQEIQELITTNTDWIRAKLSQHAETKR	-1.75
HMDELVYVPNITGKTVEEARTELQKRDLGLNIAGHQFSDEFGKGRIISQDPAAGSRLKVNRSISVIVSSGQ	0.206
HMDENVVLRKVAREAFVIEYVRGIRAIDPGIGGPKLWLMYKREFGDNDTVGRDTFEDILDRNNLKVRI	-3.26
HMDEPADVAIFDGFRQMSEDELKKLYESLNLAMTFKDFLHIQNYFKNEENREPSVTEIRVLDTYWSDH	0.174
HMDEPVDRLSPREQEVLALMAEGRSNAAIAHRLSITEKAVAKHINSIFTKLDLPLDEDDHRRVRAVLAWLR	-0.274
HMDESIPVITYKDSVYANPKAFADAHKLPYKSLHNALSKARKEGKVRFMYKQYNFHLDNNGYIVAVS	0.166
HMDESLLDYALREIKARIQNGTYPPGTKLSTQEISDSLGISRTPVVAAINRLVAQGVAEAIPRRGTIVAR	0.0188
HMDETFTITFDPNGGTLNGSKTKTVSLGDIVYGKLPTASKTGYSFIGWFTEKEGGEQISSATKIIASDLTL	0.0253
HMDETPESIFAKANELYPKYIKYFYTEQEYYSKVEEYINLYEFQKNSTYILGKDLEEFLEEYITNKQ	-0.517
HMDEWDDGDKPKLKITLYADDDYYFASGFSKSSVSLSGSDGTVTSVSRSSSDTLIVYVTLDALD	-0.0264
HMDEYILTLDEVKELLKSKDYDDLKNVLKWSNKFQKDTIIQTAISEKVSDANVINIIKEITGQDITSLIV	0.0322
HMDEYTREQFVADMEEGRVREVTIHPNSEVPTGYIRVELANGADMKLYVTDIVEAEELVRSYGFDPPVRDV	0.128
HMDFDFHALGREIKRKRKDKGWTQEYLAQLLDRTPRSIMYMENRGQHPSLNILFKIATLLEISIDQFFF	0.194
HMDFDQELFDKIVEATMDEARAAMDTDDKNVREERWNKLIEHWHELFLEDYPEMDKYLEEITYKFQKNPAT	-0.302
HMDFEVGTVKWFNTKKGYGFITRDQGEDIFVHFRNIKGQGRRSLSDGERVSFVVTHGDKGLQADQVSP	-1.38
HMDFFTAAPEEDEIGKRIDVYIAEYKEELSRSRVQKLIENGLVTVNGKAVKSNYKLRKGDILEVEIPDPE	0.0151

Sequence	soluble fraction (log2)
HMDFGPDSAAPLADGSAPEGFDVKGNADSMLYHEPDGRWYDATVAEVWFRTAEAAQAAGFTKAGS	-0.0829
HMDFNNQLKRIRESNGLTQEQLAKILNVSRQSISSWEVGRNFPDLEMIVIISKEFNISLDQLIMG	-2.82
HMDFQTDVFISRFAELKKESGETNKDLQDVFELSLSALINYQTGKRIPDIAFLHKLAQHFGVSADYLLGLS	-0.549
HMDFRQALNTSADSDANKVALLESIVKGKYVSSTVNLLRRVITLRRGRSIDATLAAYSHYVSIR	0.313
HMDFSVTIKGTSFPVMVSLKKMKQVRLKVFPSGEIKLSAPVGTPEKWIVEYLNDKMSWIEEKMDLFVQ	-0.787
HMDFTMSEIQTAMAALPRGYRTVVQLYLVDGYSHKEIAEMLGVDVNTSKSQLSRGRKQLQAFLAAMS	-0.674
HMDFYIVLGVDRAASVSDVKRAYRRLARKYHPDINPGDREAEAFFLRVTEAYETLIDPDRRQDYDVNG	-0.94
HMDFYPARVKWFNKSKGFGFANIFKSNDDIFLHIETLKRSGLSDLETGEAIVLTVTEGPRGKMADTILTWD	-0.433
HMDGDFGMNLDWQPSEHFPTLARQAGIPADHITAEAIAEFRSYWIGQGKAMTQYQWDHKLLTNLKATKTR	-1.14
HMDGEAQTYVEYGKWFPADLPLEAVRQLADGVPVTKELVAALNPRRSEWEEIKAGLDKIGYPNELL	0.0308
HMDGEITLYKVVGYIKASDFDDKKNGFVIADDYITKRQAEDTMYEWKRKKTYPYLEIKEYKGKDPYK	0.295
HMDGLAEQLFNILREELESGDYKPGQKLMSESALAQKYGVSRLTVRAAIARLSALDYVETRNGEGSFVKKR	0.0422
HMDGLDFIINENGKIANINEEGELLAKGENIMLGYYKDSISTNNTINNGWLHTGDIAKIDNDGFIYL	0.0618
HMDGMNEELYQKFFALVGNPDEGKRISQAKAAQALGYSSAVVSAYKNRTYNGNIKAFEDAVQAWLKREERR	0.000413
HMDGPELYESMKAIVPDQLDRTIFLTGGAYTPRAQEFLARVPNQQMEKPFEFEALRSLLARLT	0.0477
HMDGTEVTTEPPGAQVEYEGKQFGPTPARIPGLVAGKSLHITLPGYLEVKPKIKAVPKDGEPLSFTLTAI	0.0823
HMDGVEVVTKPAGAQIEFAGKSYGPSPVHIPGLVAGSQLILRLPGFQAATVRLRTAPDKSKALEYTLQPA	-0.0828
HMDGVLVYKEGMTVADMATGLGKTIAQVVMKLMQLGIMANQNQSVDRETVELVALDFGYELKD	-1.76
HMDGVSAEAVKSHIKTLIDGEGAKILSDDTLVDLLNAKGFDIARRTVAKYREAMGIGSSVQRRRQKKMG	0.178
HMDGYLQLASKKNELITQLKTPPKPKRLFKDFEDRVYLITEYKVFVVSIFQNEFRLRPVNKDDFYRYTT	0.207
HMDGYTAVDKAVSDQYYTKENQLYFVSMGNFFSLGAKKIEGADISSFQILTTEYARDLQHLYFNGKV	-0.383
HMDHFFSKYDSIVNHTVQKKETLFGISKKYGLTINEVIKFNPGIQIDKLKRRSVLIIPLMKKN	-0.917
HMDHKSALQELLAPRGLQPSYRLVEEAGPAHARVFTSEVSVDGVARGSGTGTTIKMSEQAAAREALASLG	0.223
HMDHKSQLQEWAQSTLGETPRYVTIAETGPDHDKELTVELIIGRKSYSIAKGKSKKQAEQSAARIALGLLM	-0.653
HMDHKSSYWSVKEANLFPELLKQFGSQWSLISDKLGTKSTTMVRNYYQRNAAQLGWKSVVEEADFKRNA	-0.436
